Measurements: publication PMC11617691, “‘GGFGGQ’ repeats in Hfq of Acinetobacter baumannii are essential for nutrient utilization and virulence”

How the values were obtained:
Hfq WT = biological target: T1, Hfq WT (Acinetobacter baumannii, UniProt V5VC31 1-168); test: fluorescence anisotropy; Kd printed only in figure; TNK buffer: 10 mM Tris-HCl pH 7.5, 50 mM NaCl, 50 mM KCl; 50 nM D16-FAM; 30 °C; 100 µl; conditions: protein: recombinant; tags: none (tag-free, stop codon in pET-28); chain copies: 6; label: 5'-FAM
T1 sequence: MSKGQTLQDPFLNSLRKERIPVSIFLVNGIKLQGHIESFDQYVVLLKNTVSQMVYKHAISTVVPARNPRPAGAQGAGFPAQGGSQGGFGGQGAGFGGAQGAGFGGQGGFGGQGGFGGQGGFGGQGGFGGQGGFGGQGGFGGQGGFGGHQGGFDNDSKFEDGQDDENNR

Hfq66 = biological target: T2, Hfq66 (Acinetobacter baumannii, UniProt V5VC31 1-66); test: fluorescence anisotropy; higher affinity (lower Kd) than WT; Kd printed only in figure; TNK buffer: 10 mM Tris-HCl pH 7.5, 50 mM NaCl, 50 mM KCl; 50 nM D16-FAM; 30 °C; 100 µl; conditions: protein: recombinant; tags: none (tag-free); chain copies: 6; label: 5'-FAM
T2 sequence: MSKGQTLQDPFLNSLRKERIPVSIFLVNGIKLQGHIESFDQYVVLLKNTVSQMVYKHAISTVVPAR

Which results are given for CGAAUUUUUUAAGUGC (ssRNA) [D16-FAM]?
binding result (Hfq WT): binds; binding result (Hfq66): binds
